Data as given in patent US20250313627A1 (FUSE BIOTHERAPEUTICS, published 2025).
Positions count from the first letter of the chain named. Numbers in names are those of the source.

Tests used:
[1] = biological target: T1, human ROR1 (Receptor Tyrosine Kinase-Like Orphan Receptor 1) on the cell surface (human, UniProt Q01973 30-937); test: flow cytometry, B16-F10 cells expressing human ROR1 (high density)
T1 construct: whole, on cells; engineered into B16-F10 (high density) and LS174T (low density) cells; also called B16-F10-ROR1-H; LS174T-ROR1-L
Method: (§1) As shown in the tables below, mouse B16-F10 melanoma (Tables 9A-9F) or LS174T human colorectal adenocarcinoma (Tables 9G-9H) cells genetically engineered to express human ROR1 at high and low densities, respectively, were stained for flow cytometric analysis with 100 nM of humanized variants of the ROR1 specific VHHs, 5A1 or 2A11 in either a VHH-Fc format or the Ac13 format shown in FIG. 1. Cells were analyzed on a flow cytometer after the primary test article was fluorescently tagged with a goat anti human IgG-Fc specific PE secondary antibody. The positive control used was PE conjugated anti-human ROR1 clone 2A2. Negative controls included a PE labeled mouse IgG Ab, the secondary antibody only, the combination of a Hen Egg Lysozyme (HEL) specific antibody plus goat anti human IgG-Fc specific PE and Fluorescence Minus One (FMO). Other controls included the non-humanized version of 5A1-Fc (FUSE179), 2A11-Fc (FUSE112) and 5A1-Ac13 (FUSE488). Humanized variants were generated using computational design (FUSE489, FUSE497-498, FUSE563, FUSE569-570, and BI-HU9-VHH11-33), a yeast display library in which mutations were inserted into the Vernier zone residues of human framework indicated in GenBank accession number M99660 (FUSE524-525, FUSE589, FUSE597-598, FUSE537, FUSE661-662, BI-HU9-HK and BI-HU9-HK-1), and a second yeast display library in which mutations were inserted into the Vernier zone residues of human framework indicated in GenBank accession number AWH66715 and amino acid position 103 within CDR3 (FUSE559, FUSE590-596, BI-HU9-VH9-1, FUSE654-655 and FUSE661-662. Affinity matured variants of FUSE559 were also generated using computational design (F22158101-21; Table 9H).

[2] = biological target: T1, human ROR1 (Receptor Tyrosine …); test: as above; remark: listed apart in the source
Method: as §1

[3] = biological target: T1, human ROR1 (Receptor Tyrosine …); test: flow cytometry, LS174T cells expressing human ROR1 (low density)
Method: as §1

[4] = biological target: T1, human ROR1 (Receptor Tyrosine …); test: flow cytometry, B16-F10 cells expressing human ROR1 (high density); remark: listed apart in the source
Method: as §1

[5] = biological target: T1, human ROR1 (Receptor Tyrosine …); test: flow cytometry, LS174T cells expressing human ROR1 (low density); remark: listed apart in the source
Method: as §1

T1 sequence (Q01973 30-937): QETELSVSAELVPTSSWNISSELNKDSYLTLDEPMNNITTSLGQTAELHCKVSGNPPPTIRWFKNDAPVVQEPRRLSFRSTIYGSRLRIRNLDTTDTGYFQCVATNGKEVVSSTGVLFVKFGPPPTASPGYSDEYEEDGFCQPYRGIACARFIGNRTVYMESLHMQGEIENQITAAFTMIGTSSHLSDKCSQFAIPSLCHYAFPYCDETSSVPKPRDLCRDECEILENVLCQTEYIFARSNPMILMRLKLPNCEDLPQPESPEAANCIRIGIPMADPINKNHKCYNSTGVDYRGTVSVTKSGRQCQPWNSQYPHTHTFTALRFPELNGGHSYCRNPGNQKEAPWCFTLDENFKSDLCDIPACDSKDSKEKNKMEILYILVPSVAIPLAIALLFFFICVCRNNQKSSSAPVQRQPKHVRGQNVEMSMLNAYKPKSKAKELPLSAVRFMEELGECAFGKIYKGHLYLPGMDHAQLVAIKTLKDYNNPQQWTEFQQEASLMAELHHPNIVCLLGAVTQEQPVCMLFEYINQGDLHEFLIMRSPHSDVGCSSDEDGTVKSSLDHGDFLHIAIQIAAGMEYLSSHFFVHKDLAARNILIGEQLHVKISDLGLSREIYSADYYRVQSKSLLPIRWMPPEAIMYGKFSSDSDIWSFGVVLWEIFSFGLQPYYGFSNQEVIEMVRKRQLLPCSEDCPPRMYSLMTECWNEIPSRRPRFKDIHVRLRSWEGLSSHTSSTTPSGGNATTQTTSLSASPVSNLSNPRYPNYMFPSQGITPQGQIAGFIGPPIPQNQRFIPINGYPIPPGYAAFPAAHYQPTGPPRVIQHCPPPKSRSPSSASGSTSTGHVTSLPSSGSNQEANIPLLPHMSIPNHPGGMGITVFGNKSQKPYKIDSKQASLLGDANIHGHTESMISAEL

B1: FUSE-489 (h5A1-Ac13) (bispecific antibody, human IgG1, lambda, L234A L235A)
heavy: EVQLVESGGGLVQPGGSLRLSCAASGFTFSTYAMNWVRQAPGKGLEWVARIRSKYNNYATYYADSVKDRFTISRDDSKNTLYLQMNSLRAEDTAVYYCARHGNFGNSYVSWFAYWGQGTMVTVSSASTKGPSVFPLAPSSKSTSGGTAALGCLVKDYFPEPVTVSWNSGALTSGVHTFPAVLQSSGLYSLSSVVTVPSSSLGTQTYICNVNHKPSNTKVDKKVEPKSCDKTHTCPPCPAPEAAGGPSVFLFPPKPKDTLMISRTPEVTCVVVDVSHEDPEVKFNWYVDGVEVHNAKTKPREEQYNSTYRVVSVLTVLHQDWLNGKEYKCKVSNKALPAPIEKTISKAKGQPREPQVYTLPPSREEMTKNQVSLSCAVKGFYPSDIAVEWESNGQPENNYKTTPPVLDSDGSFFLVSKLTVDKSRWQQGNVFSCSVMHEALHNRFTQKSLSLSPGK
chain: QVQLQESGGGLVQPGGSLRLSCTASGYTNRLKCMGWVRQAPGKEREEVATISTGTGNTYYADSVKGRFTISRDNSKNTLYLQMNSLRAEDTAMYYCAADVRPDGTTCHYNSGGQGTQVTVSSEPKSSDKTHTCPPCPAPEAAGGPSVFLFPPKPKDTLMISRTPEVTCVVVDVSHEDPEVKFNWYVDGVEVHNAKTKPREEQYNSTYRVVSVLTVLHQDWLNGKEYKCKVSNKALPAPIEKTISKAKGQPREPQVYTLPPSREEMTKNQVSLWCLVKGFYPSDIAVEWESNGQPENNYKTTPPVLDSDGSFFLYSKLTVDKSRWQQGNVFSCSVMHEALHNHYTQKSLSLSPGK
light: QAVVTQEPSLTVSPGGTVTLTCRSSTGAVTTSNYANWVQQKPGQAPRGLIGGTNKRAPGTPARFSGSLLGGKAALTLSGVQPEDEAEYYCALWYSNLWVFGGGTKLTVLGQPKAAPSVTLFPPSSEELQANKATLVCLISDFYPGAVTVAWKADSSPVKAGVETTTPSKQSNNKYAASSYLSLTPEQWKSHRSYSCQVTHEGSTVEKTVAPTECSGGGGSGGGGSGGGGSGGGGSQVQLQESGGGLVQPGGSLRLSCTASGYTNRLKCMGWVRQAPGKEREEVATISTGTGNTYYADSVKGRFTISRDNSKNTLYLQMNSLRAEDTAMYYCAADVRPDGTTCHYNSGGQGTQVTVSS
notes: Format Ac13
MFI [1]: 1060

B2: FUSE-497 (h5A1-Ac13) (bispecific antibody, human IgG1, lambda, L234A L235A)
heavy: B1 heavy
chain: EVQLLESGGGLVPRGGSLRLSCTASGYTNRLKCMGWFRQAPGKEREEIATISTGTGNTYYADSVKGRFTISRDNSRNTLYLQMKTLRAEDTAVYYCAADVRPDGTTCHYNSWGQGTQVTVSSEPKSSDKTHTCPPCPAPEAAGGPSVFLFPPKPKDTLMISRTPEVTCVVVDVSHEDPEVKFNWYVDGVEVHNAKTKPREEQYNSTYRVVSVLTVLHQDWLNGKEYKCKVSNKALPAPIEKTISKAKGQPREPQVYTLPPSREEMTKNQVSLWCLVKGFYPSDIAVEWESNGQPENNYKTTPPVLDSDGSFFLYSKLTVDKSRWQQGNVFSCSVMHEALHNHYTQKSLSLSPGK
light: QAVVTQEPSLTVSPGGTVTLTCRSSTGAVTTSNYANWVQQKPGQAPRGLIGGTNKRAPGTPARFSGSLLGGKAALTLSGVQPEDEAEYYCALWYSNLWVFGGGTKLTVLGQPKAAPSVTLFPPSSEELQANKATLVCLISDFYPGAVTVAWKADSSPVKAGVETTTPSKQSNNKYAASSYLSLTPEQWKSHRSYSCQVTHEGSTVEKTVAPTECSGGGGSGGGGSGGGGSGGGGSEVQLLESGGGLVPRGGSLRLSCTASGYTNRLKCMGWFRQAPGKEREEIATISTGTGNTYYADSVKGRFTISRDNSRNTLYLQMKTLRAEDTAVYYCAADVRPDGTTCHYNSWGQGTQVTVSS
notes: Format Ac13
MFI [1]: 811

B3: FUSE-498 (h5A1-Ac13) (bispecific antibody, human IgG1, lambda, L234A L235A)
heavy: B1 heavy
chain: B1 chain with Q1E, Q5V, V37F, V48I, I70F, M93V
light: B1 light with Q236E, Q240V, V272F, V283I, I305F, M328V
notes: Format Ac13
MFI [1]: 1360

B4: FUSE-560 (h2A11-HK2 Fc) (Fc fusion)
chain: EVQLLESGGGLVQPGGSLRLSCAASGSTYSANCMGWFRQAPGKERELASMSIRSGRTYYADSVKGRFTISRDSSKNTLYLQMNSLKAEDTAVYYCAAAYGGSRCVYNYRGQGTLVTVSS
notes: VHH-Fc format; not shown: Fc of the VHH-Fc format
MFI [2]: 159000

B5: FUSE-662 - h2A11-HK2-16-N84S Fc (Fc fusion)
chain: B4 chain with S27V, T28G, E44D, N83S
notes: as for B4
MFI [3]: 4350

B6: FUSE-561 (h2A11-HK3 Fc) (Fc fusion)
chain: B4 chain with K86R
notes: as for B4
MFI [2]: 157000

B7: FUSE-589 (h2A11-HK5 Fc) (Fc fusion)
chain: B4 chain with R71Q, S73G
notes: as for B4
MFI [4]: 6950

B8: FUSE-661 - h2A11-HK2-3-N84S Fc (Fc fusion)
chain: B4 chain with T28Q, Y29R, E44D, N83S
notes: as for B4
MFI [3]: 4880

B9: FUSE-562 (h2A11-HK4 Fc) (Fc fusion)
chain: B4 chain with A60S, S73G
notes: as for B4
MFI [2]: 155000

B10: BI-HU9-VH9 h5A1 Fc (Fc fusion)
chain: EVQLLESGGGLVPRGGSLRLSCTASGYTNRLKCMGWFRQAPGKEREEIATISTGTGNTYYADSVKGRFTISRDNSRNTLYLQMKTLRAEDTAVYYCAADVRPDGTTCHYNSWGQGTQVTVSS
notes: VHH-Fc format; same VHH as FUSE-497; not shown: Fc of the VHH-Fc format
MFI [2]: 14400

B11: BI-HU9-HK-1 h5A1 Fc (Fc fusion)
chain: EVQLLESGGGLVQPGGSLRLSCAASGYTNRLKCMGWFRQAPGKEREEVASISTGTGNTYYADSVKGRFTISQDKSKNTLYLQMNSLKAEDTAVYYCAADVRPDGTTCHYNSRGQGTLVTVSS
notes: as for B4
MFI [2]: 136000

B12: FUSE-590 (h5A1-FA9-HK2_Fc) (Fc fusion)
chain: B10 chain with P13Q, T50S, A61S, N74K, T85S, D103R, W112R
notes: as for B4
MFI [4]: 7330

B13: F221581017 (h5A1-BI-017 Fc) (Fc fusion)
chain: B11 chain with L31I, T58A, D103H
notes: VHH-Fc format; also called F22158117; not shown: Fc of the VHH-Fc format
MFI [5]: 28600

B14: F221581016 (h5A1-BI-016 Fc) (Fc fusion)
chain: B11 chain with T58A, D103H
notes: VHH-Fc format; also called F22158116; not shown: Fc of the VHH-Fc format
MFI [5]: 15000

B15: BI-HU9-VHH31 h5A1 Fc (Fc fusion)
chain: EVQLVESGGGLVQPGGSLRLSCAASGFTVRLKCMGWFRQAPGKGLEEVATISTGTGNTYYADSVKGRFTISRDNSKNTLYLQMNSLRAEDTAVYYCAADVRPDGTTCHYNSWGQGTTVTVSS
notes: as for B4
MFI [2]: 17900

B16: F221581019 (h5A1-BI-019 Fc) (Fc fusion)
chain: B11 chain with L31I, T58A, D103H, T105R
notes: VHH-Fc format; also called F22158119; not shown: Fc of the VHH-Fc format
MFI [5]: 33800

B17: F221581014 (h5A1-BI-014 Fc) (Fc fusion)
chain: B11 chain with L31I, D103F, T105R
notes: VHH-Fc format; also called F22158114; not shown: Fc of the VHH-Fc format
MFI [5]: 28700

B18: FUSE-595 (h5A1-FA9-HK7_Fc) (Fc fusion)
chain: B10 chain with P13Q, N74K, T85S, R87K, D103K, W112R
notes: as for B4
MFI [4]: 7180

B19: F221581021 (h5A1-BI-021 Fc) (Fc fusion)
chain: B11 chain with L31I, T58A, D103H, S111K
notes: VHH-Fc format; also called F22158121; not shown: Fc of the VHH-Fc format
MFI [5]: 35800

B20: FUSE-593 (h5A1-FA9-HK5_Fc) (Fc fusion)
chain: B11 chain with P14R, V48I, A61S, Q72R, K76R, M83L, D103K, L117Q
notes: as for B4
MFI [4]: 7520

B21: FUSE-591 (h5A1-FA9-HK3_Fc) (Fc fusion)
chain: B11 chain with Q13P, P14R, V48I, S50T, K76R, D103K, S111K, L117Q
notes: as for B4
MFI [4]: 7770

B22: FUSE-592 (h5A1-FA9-HK4_Fc) (Fc fusion)
chain: B11 chain with Q13P, P14R, K76R, M83L, K87R, D103R, L117Q
notes: as for B4
MFI [4]: 7540

B23: F221581018 (h5A1-BI-018 Fc) (Fc fusion)
chain: B11 chain with T58A, D103H, T105R
notes: VHH-Fc format; also called F22158118; not shown: Fc of the VHH-Fc format
MFI [5]: 17500

B24: FUSE-596 (h5A1-FA9-HK8 Fc) (Fc fusion)
chain: B10 chain with T50S, A61S, N74K, Q82K, M83L, T85S, W112R
notes: as for B4
MFI [4]: 6260

B25: FUSE-655 - h5A1-FA9-HK6-N84S Fc (Fc fusion)
chain: B10 chain with T50S, R72Q, N74K, K84S, T85S, R87K, D103R, W112R
notes: as for B4
MFI [3]: 4010

B26: F221581020 (h5A1-BI-020 Fc) (Fc fusion)
chain: B11 chain with T58A, D103H, S111K
notes: VHH-Fc format; also called F22158120; not shown: Fc of the VHH-Fc format
MFI [5]: 26500

B27: FUSE-594 (h5A1-FA9-HK6_Fc) (Fc fusion)
chain: B11 chain with Q13P, P14R, A23T, V48I, K76R, D103R, L117Q
notes: as for B4
MFI [4]: 7910

B28: BI-HU9-VH9-1 h5A1 Fc (Fc fusion)
chain: B10 chain with R72Q, N74K
notes: as for B4
MFI [2]: 16600

B29: F221581015 (h5A1-BI-015 Fc) (Fc fusion)
chain: B11 chain with L31I, D103F, S111K
notes: VHH-Fc format; also called F22158115; not shown: Fc of the VHH-Fc format
MFI [5]: 29300

B30: FUSE-654 - h5A1-FA9-HK6-R19K Fc (Fc fusion)
chain: B11 chain with Q13P, P14R, R19K, A23T, V48I, K76R, D103R, L117Q
notes: as for B4
MFI [3]: 4560
